B1: Pistol ribozyme (parent)
chain: GGGUCGUUGUUCCAUAAUCGCGUGGAUAUGGCACGCAAGUUUCUACCGGGCACCGUAAAUGUCCGACUGGAGCCGUUCGGGCGGCUAUAAACAGACCUCAGGCCCGAAGCGUGGCGGCACCUGCCGCCGGUGGUAAAAAAGAUCGGAAGAGCACACGUCU

Variants of: B1
Test: aptazyme ON/OFF ratio, guanine; higher = stronger switching; co-transcriptional cleavage with and without guanine

| Variant | aptazyme ON/OFF ratio |
| --- | --- |
| U7C G9U U10A U11A C12U | 1.36 |
| U7C G9C U10A U11G C12G C13U | 1.13 |
| U7C G9C U10A U11G C12G C13A | 1.1 |
| U7C G9C U10A U11G C12G C13G | 1.09 |
| U7C G9C U10A U11C C12U C13G | 1.03 |
| U7C G9C U10A U11C C12U C13U | 1.03 |
| U7C G9C U10A U11C C12U C13A | 1.04 |
| U7C G9C U10C U11G C13A | 1.12 |
| U7C G9C U10C U11G C13U | 1.19 |
| U7C G9C U10C U11G C13G | 1.05 |
| U7C G9C U10A U11C C12G C13U | 1.17 |
| U7C G9C U10A U11C C12G C13G | 1.27 |
| U7C G9C U10A U11C C12G C13A | 1.07 |
| U7C G9U U10A U11C C12A C13U | 1.23 |
| U7C G9U U10A U11C C12A C13A | 1.22 |
| U7C G9U U10A U11C C12A C13G | 1.14 |
| U7C G9C U10A U11G C12A C13A | 1.15 |
| U7C G9C U10A U11G C12A C13U | 1.06 |
| U7C G9C U10A U11G C12A C13G | 1.03 |
| U7C G9C U10A U11A C12U C13A | 1.04 |
| U7C G9C U10A U11A C12U C13U | 1.09 |

| Variant | aptazyme ON/OFF ratio |
| --- | --- |
| U7C G9C U10A U11A C12U C13G | 1.06 |
| U7C G9C U10G U11A C12A | 1.25 |
| U7C G9C U10G U11A C12G | 1.23 |
| U7C G9C U10G U11A C12U | 1.15 |
| U7C G9U U10A C12U C13A | 1.15 |
| U7C G9U U10A C12U C13U | 1.22 |
| U7C G9U U10A C12U C13G | 1.11 |
| U7C G9C U11C C12A C13G | 1.02 |
| U7C G9C U11C C12A C13A | 1.02 |
| U7C G9C U11C C12A C13U | 1.05 |
| U7C G9U U10A U11A C12U C13U | 1.25 |
| U7C G9U U10A U11A C12U C13A | 1.27 |
| U7C G9U U10A U11A C12U C13G | 1.14 |
| U7C G9C U11G C12A | 1.01 |
| U7C G9C U11G C12G | 1.13 |
| U7C G9C U11G C12U | 1.08 |
| U7C G9U C12U C13G | 1.1 |
| U7C G9U C12U C13A | 1.12 |
| U7C G9U C12U C13U | 1.12 |
| U7C G9U U10A U11G C12U C13A | 1.09 |
| U7C G9U U10A U11G C12U C13G | 1.11 |

| Variant | aptazyme ON/OFF ratio |
| --- | --- |
| U7C G9U U10A U11G C12U C13U | 1.18 |
| U7C G9C U10G U11A C13U | 1.11 |
| U7C G9C U10G U11A C13G | 1.05 |
| U7C G9C U10G U11A C13A | 1.17 |
| U7C G9C U10A U11G C13A | 1.09 |
| U7C G9C U10A U11G C13U | 1.09 |
| U7C G9C U10A U11G C13G | 1.07 |
| U7C G9U C12A C13A | 1.18 |
| U7C G9U C12A C13U | 1.19 |
| U7C G9U C12A C13G | 1.08 |
| U7C G9C U10C C12G C13U | 1.08 |
| U7C G9C U10C C12G C13A | 1.09 |
| U7C G9C U10C C12G C13G | 1.12 |
| U7C G9C U10G U11G C12A C13A | 1.08 |
| U7C G9C U10G U11G C12A C13G | 1.12 |
| U7C G9C U10G U11G C12A C13U | 1.09 |
| U7C G9C U11A C12U C13G | 1.03 |
| U7C G9C U11A C12U C13A | 1.02 |
| U7C G9C U11A C12U C13U | 1.05 |
| U7C G9C U10G U11G C13U | 1.09 |
| U7C G9C U10G U11G C13G | 1.11 |

| Variant | aptazyme ON/OFF ratio |
| --- | --- |
| U7C G9C U10G U11G C13A | 1.1 |
| U7C G9U U10C C12U C13U | 1.08 |
| U7C G9U U10C C12U C13G | 1.05 |
| U7C G9U U10C C12U C13A | 1.08 |
| U7C G9U U10A U11C C12G C13U | 1.15 |
| U7C G9U U10A U11C C12G C13G | 1.19 |
| U7C G9U U10A U11C C12G C13A | 1.16 |
| U7C G9C U10A U11G C12U | 1.05 |
| U7C G9C U10A U11G C12A | 1.11 |
| U7C G9C U10A U11G C12G | 1.29 |
| U7C G9C U11G C13A | 1.03 |
| U7C G9C U11G C13G | 1.03 |
| U7C G9C U11G C13U | 1.06 |
| U7C G9C U11A | 1.03 |
| U7C G9C U11C | 1.03 |
| U7C G9C U11G | 1.06 |
| U7C G9U U10C U11A C12G C13G | 1.23 |
| U7C G9U U10C U11A C12G C13A | 1.19 |
| U7C G9U U10C U11A C12G C13U | 1.15 |
| U7C G9C U11C C12G C13A | 1.04 |
| U7C G9C U11C C12G C13U | 1.04 |
